# Reference: patent US20230212319A1, “NOVEL ANTIGEN BINDING DOMAINS AND SYNTHETIC ANTIGEN RECEPTORS INCORPORATING THE SAME” (University of Southern California, priority 2020, published 2023)
# System: L363 cells
# Assay: JNG assay, co-culture with L363 cells
# Format: cell-based
# Conditions: co-culture with L363
# Protocol: Cellular supernatant is collected and assayed for the induction of cytokines (e.g., IL2).
# JNG (Jurkat cells expressing EGFP under an NFAT promoter) were infected with lentiviral vectors encoding different single chain and multi-chain SARs by spinfection in the presence of 8 µg/ml of Polybrene® (Sigma, Catalog no. H9268). The Jurkat-NFAT-GFP cells are engineered in such a way that the IL-2 promoter, which carries NFAT binding sites, is cloned upstream of the GFP gene. These cells have been used to study signaling via TCR and CAR. The different SARs were stably expressed in Jurkat NFAT-GFP cells by lentiviral mediated gene transfer, followed by selection with puromycin or blasticidin. No drug selection was used in case the construct lacked an antibiotic resistance gene. The SAR-expressing Jurkat-NFAT-GFP cells were cocultured with the target cells at E:T ratio of approximately 1:2 for approximately 4 hours to 18 hours. When the interaction between SIRs and their target antigen results in activation of the NFAT pathway, GFP expression is induced. […] GFP expression was monitored by FACS analysis. The Jurkat-NFAT-GFP (parental) cells were used as control. The structure of different constructs can be determined based on their names. […] The sequence of the other constructs in the table can be similarly determined from their names and by referring to the different Tables of this disclosure that provide the names and SEQ ID NO of the different modules. Alternatively, the composition and modular architecture of the different SAR constructs can be determined from their sequences by bioinformatics tools, including using nucleic acid and amino acids homology searches. A SAR is considered positive in the assay in case the SAR expressing Jurkat-NFAT-GFP cells show greater % GFP positive cells when cultured with the target cell line as compared to parental Jurkat-NFAT-GFP cells. […] In general, the number +/-, +, 2+, 3+, 4+, 5+ refer to approximately 5%, 10%, 20%, 30%, 40% and 50% GFP positive cells. The % of GFP induction in the above assay is dependent not only the relative strength of the SAR but also, among other factors, on the relative level of expression of the SAR in the JNG cells and the relative level of expression of the target antigen in the target cell line. To control for the difference in gene transduction efficiency of the different SAR constructs, the experiment was conducted with JNG cells transduced with SAR constructs co-expressing a drug resistance gene (e.g., puromycin or PAC) followed by drug selection to generate a stable population of SAR-expressing cells. It is to be noted that the drug resistance gene (e.g., PAC) in the SAR constructs is optional and in vivo studies were conducted with SAR constructs lacking the PAC gene.
row,Molecule,NFAT-GFP ASSAY: L363
1,21996 (protein) MALPVTALLLPLALLLHAARPQVQLVESGGGLVQPGGSLRLSCAASGFTFTNHAMSWVRQAPGKGLELVSSISGNGRTTYYADSVKGRFTISRDISKNTLDLQMNSLRAEDTAVYYCAKDGGETLVDSRGQGTLVTVSSLEDLKNVFPPEVAVFEPSEAEISHTQKATLVCLATGFYPDHVELSWWVNGKEVHSGVCTDPQPLKEQPALNDSRYCLSSRLRVSATFWQNPRNHFRCQVQFYGLSENDEWTQDRAKPVTQIVSAEAWGRADCGFTSESYQQGVLSATILYEILLGKATLYAVLVSALVLMAMVKRKDSRGRAKRSGSGATNFSLLKQAGDVEENPGPTSMDWIWRILFLVGAATGAHSFEVQLLESGGGLVQPGGSLRLSCAASGFIFSIYAMSWVRQAPGKGLEWVSGISGSGVNTYYAHSVKGRFIISRDNSRNTVYLQMNSLRADDTAVYHCANGKGWDGNTWYEDYRGQGTLVTVSSTRIQNPDPAVYQLRDSKSSDKSVCLFTDFDSQTNVSQSKDSDVYITDKCVLDMRSMDFKSNSAVAWSNKSDFACANAFNNSIIPEDTFFPSPESSCDVKLVEKSFETDTNLNFQNLSVIGFRILLLKVAGFNLLMTLRLWSSRAKRSGSGVKQTLNFDLLKLAGDVESNPGPSRGHMTEYKPTVRLATRDDVPRAVRTLAAAFADYPATRHTVDPDRHIERVTELQELFLTRVGLDIGKVWVADDGAAVAVWTTPESVEAGAVFAEIGPRMAELSGSRLAAQQQMEGLLAPHRPKEPAWFLATVGVSPDHQGKGLGSAVVLPGVEAAERAGVPAFLETSAPRNLPFYERLGFTVTADVEVPEGPRTWCMTRKPGA,"L363 (+) (refer to approximately 5%, 10%, 20%, 30%, 40% and 50% GFP positive cells)"
2,22014 (protein) MALPVTALLLPLALLLHAARPQVQLVESGGGLVQPGGSLRLSCAASGFTFTNHAMSWVRQAPGKGLELVSSISGNGRTTYYADSVKGRFTISRDISKNTLDLQMNSLRAEDTAVYYCAKDGGETLVDSRGQGTLVTVSSLEDLKNVFPPEVAVFEPSEAEISHTQKATLVCLATGFYPDHVELSWWVNGKEVHSGVCTDPQPLKEQPALNDSRYCLSSRLRVSATFWQNPRNHFRCQVQFYGLSENDEWTQDRAKPVTQIVSAEAWGRADCGFTSESYQQGVLSATILYEILLGKATLYAVLVSALVLMAMVKRKDSRGRAKRSGSGATNFSLLKQAGDVEENPGPTSMDWIWRILFLVGAATGAHSFEVQLLESGGGLVQPGGSLRLSCAASGFIFSIYAMSWVRQAPGKGLEWVSGISGSGVNTYYADSVKGRFIISRDNSRNTVYLQMNSLRADDTAVYHCANGKGWDGNTWYEDYRGQGTLVTVSSTRIQNPDPAVYQLRDSKSSDKSVCLFTDFDSQTNVSQSKDSDVYITDKCVLDMRSMDFKSNSAVAWSNKSDFACANAFNNSIIPEDTFFPSPESSCDVKLVEKSFETDTNLNFQNLSVIGFRILLLKVAGFNLLMTLRLWSSRAKRSGSGVKQTLNFDLLKLAGDVESNPGPSRGHMTEYKPTVRLATRDDVPRAVRTLAAAFADYPATRHTVDPDRHIERVTELQELFLTRVGLDIGKVWVADDGAAVAVWTTPESVEAGAVFAEIGPRMAELSGSRLAAQQQMEGLLAPHRPKEPAWFLATVGVSPDHQGKGLGSAVVLPGVEAAERAGVPAFLETSAPRNLPFYERLGFTVTADVEVPEGPRTWCMTRKPGA,"+/- (refer to approximately 5%, 10%, 20%, 30%, 40% and 50% GFP positive cells)"
3,21998 (protein) MDWIWRILFLVGAATGAHSQLQLQESGPGLVKPSETLSLTCTVSGGSVSSSSYYWGWIRQPPGKRLELIGSIYYGGSTYFNPSLKTRVTISVDTSKNQFSLKLSSVTAADTAVYYCAGGDTYGPVGQWPSDYRGQGTLVTVSSLEDLKNVFPPEVAVFEPSEAEISHTQKATLVCLATGFYPDHVELSWWVNGKEVHSGVCTDPQPLKEQPALNDSRYCLSSRLRVSATFWQNPRNHFRCQVQFYGLSENDEWTQDRAKPVTQIVSAEAWGRADCGFTSESYQQGVLSATILYEILLGKATLYAVLVSALVLMAMVKRKDSRGRAKRSGSGATNFSLLKQAGDVEENPGPTSMDWIWRILFLVGAATGAHSFEQVQLVESGGGLVQPGGSLRLSCAASGFTFTNHAMSWVRQAPGKGLELVSSISGNGRTTYYADSVKGRFTISRDISKNTLDLQMNSLRAEDTAVYYCAKDGGETLVDSRGQGTLVTVSSTRIQNPDPAVYQLRDSKSSDKSVCLFTDFDSQTNVSQSKDSDVYITDKCVLDMRSMDFKSNSAVAWSNKSDFACANAFNNSIIPEDTFFPSPESSCDVKLVEKSFETDTNLNFQNLSVIGFRILLLKVAGFNLLMTLRLWSSRAKRSGSGVKQTLNFDLLKLAGDVESNPGPSRGHMTEYKPTVRLATRDDVPRAVRTLAAAFADYPATRHTVDPDRHIERVTELQELFLTRVGLDIGKVWVADDGAAVAVWTTPESVEAGAVFAEIGPRMAELSGSRLAAQQQMEGLLAPHRPKEPAWFLATVGVSPDHQGKGLGSAVVLPGVEAAERAGVPAFLETSAPRNLPFYERLGFTVTADVEVPEGPRTWCMTRKPGA,"L363 (+) (refer to approximately 5%, 10%, 20%, 30%, 40% and 50% GFP positive cells)"
4,22016 (protein) MDWIWRILFLVGAATGAHSQLQLQESGPGLVKPSETLSLTCTVSGGSVSSSSYYWGWIRQPPGKRLELIGSIYYGGSTYFNPSLKTRVTISVDTSKNQFSLKLSSVTAADTAVYYCAGGDTYGPVGQWPSDYRGQGTLVTVSSLEDLKNVFPPEVAVFEPSEAEISHTQKATLVCLATGFYPDHVELSWWVNGKEVHSGVCTDPQPLKEQPALNDSRYCLSSRLRVSATFWQNPRNHFRCQVQFYGLSENDEWTQDRAKPVTQIVSAEAWGRADCGFTSESYQQGVLSATILYEILLGKATLYAVLVSALVLMAMVKRKDSRGRAKRSGSGATNFSLLKQAGDVEENPGPTSMDWIWRILFLVGAATGAHSFEQVQLVESGGGLVQPGGSLRLSCAASGFTFTNHAMSWVRQAPGKGLELVSSISGNGRTTYYADSVKGRFTISRDISKNTLDLQMNSLRAEDTAVYYCAKDGGETLVDSRGQGTLVTVSSTRIQNPDPAVYQLRDSKSSDKSVCLFTDFDSQTNVSQSKDSDVYITDKCVLDMRSMDFKSNSAVAWSNKSDFACANAFNNSIIPEDTFFPSPESSCDVKLVEKSFETDTNLNFQNLSVIGFRILLLKVAGFNLLMTLRLWSSRAKRSGSGVKQTLNFDLLKLAGDVESNPGPSRGHMTEYKPTVRLATRDDVPRAVRTLAAAFADYPATRHTVDPDRHIERVTELQELFLTRVGLDIGKVWVADDGAAVAVWTTPESVEAGAVFAEIGPRMAELSGSRLAAQQQMEGLLAPHRPKEPAWFLATVGVSPDHQGKGLGSAVVLPGVEAAERAGVPAFLETSAPRNLPFYERLGFTVTADVEVPEGPRTWCMTRKPGA,"+/- (refer to approximately 5%, 10%, 20%, 30%, 40% and 50% GFP positive cells)"
5,22009 (protein) MALPVTALLLPLALLLHAARPLEGKPIPNPLLGLDSTGSGEDLKNVFPPEVAVFEPSKAEIAHTQKATLVCLATGFYPDHVELSWWVNGKEVHSGVCTDPQPLKEQPALNDSRYCLSSRLRVSATFWQNPRNHFRCQVQFYGLSENDEWTQDRAKPVTQIVSAEAWGRADCGITSASYHQGVLSATILYEILLGKATLYAVLVSALVLMAMVKRKDSRGRAKRSGSGATNFSLLKQAGDVEENPGPTSTMDWIWRILFLVGAATGAHSQLQLQESGPGLVKPSETLSLTCTVSGGSVSSSSYYWGWIRQPPGKRLELIGSIYYGGSTYFNPSLKSRVTISVDTSKNQFSLKLSSVTAADTAVYYCAGGDTYGPVGQWPSDYRGQGTLVTVSSGGGGSGGGSFEVQLLESGGGLVQPGGSLRLSCAASGFIFSIYAMSWVRQAPGKGLEWVSGISGSGVNTYYADSVKGRFIISRDNSRNTVYLQMNSLRADDTAVYHCANGKGWDGNTWYEDYRGQGTLVTVSSTREQKLISEEDGSGIQNPDPAVYQLRDSKSSDKSVCLFTDFDSQTNVSQSKDSDVYITDKCVLDMRSMDFKSNSAVAWSNKSDFACANAFNNSIIPEDTFFPSSDVPCDVKLVEKSFETDTNLNFQNLSVIGFRILLLKVAGFNLLMTLRLWSSRAKRSGSGVKQTLNFDLLKLAGDVESNPGPSRGHMTEYKPTVRLATRDDVPRAVRTLAAAFADYPATRHTVDPDRHIERVTELQELFLTRVGLDIGKVWVADDGAAVAVWTTPESVEAGAVFAEIGPRMAELSGSRLAAQQQMEGLLAPHRPKEPAWFLATVGVSPDHQGKGLGSAVVLPGVEAAERAGVPAFLETSAPRNLPFYERLGFTVTADVEVPEGPRTWCMTRKPGA,"L363 (+/-) (refer to approximately 5%, 10%, 20%, 30%, 40% and 50% GFP positive cells)"
